Experiments:
[1] = tested on: ssRNA containing two AGGUAA sites (AGGUAAAGGUAA, SEQ ID NO: 26); experiment: Fluorescence anisotropy titration, double-site ssRNA; assay type: binding
Description: Fluorescence Anisotropy titrations e.g., as shown in FIGS. 1D-F, 8 and 35, were carried out using standard protocols. In brief, 5′-Fluorescein-labeled RNA oligonucleotides were quantified by A260, correcting for fluorescein absorbance by using A493. For single-site experiments, the sequence GCAACCAGGUAAAGUCU (SEQ ID NO: 28), or single base mutants thereof, was used. For double-site experiments, two AGGUAA sites were separated by different length sequences as indicated, and the total oligonucleotide lengths were kept constant by the symmetrical addition of adenines to each end. The anisotropy titrations were performed with a starting RNA concentration of 50 nM in a buffer comprising either 10 mM Tris (pH 8.0), 50 mM KCl, 5 mM MgCl2, 0.05 mg/mL heparin, and 1 mM DTT (for GST fusion constructs) or 10 mM Mops (pH 7.3), 50 mM NaCl, 0.05 mg/mL heparin, and 1 mM DTT (for ZRANB2-F12). RNasin (Promega) was also added to the protein solution to a concentration of 2 units/μL. Protein was titrated into this starting solution and anisotropy values measured on a Cary Eclipse fluorescence spectrophotometer fitted with manual polarizer and long-pass filters set to 475 and 515 nm for excitation and emission, respectively. Excitation and emission wavelengths were set at 495 and 520 nm, respectively (10-nm slits) and the temperature was maintained at 25° C. by using a block temperature controller. Association constants were determined by nonlinear least squares regression analysis using a 1:1 binding model.
The importance of the spacing between AGGUAA motifs was assessed by measuring binding of F12 to double sites that were separated by −1 to 8 nt (where −1 denotes the sequence AGGUAAGGUAA SEQ ID NO: 33; FIG. 1E, lanes 5-10).

[2] = tested on: ssRNA pool containing a randomized 25-nt sequence; experiment: SELEX in vitro site selection; assay type: binding; details: up to 13 rounds of selection
Description: A ZRANB2-F12 SELEX protocol was developed, based on that used by Sakashita E. and Sakamoto H.1994 Acids Res 22:4082-4086. In brief, a library of ssRNA sequences was incubated with GST-F12 on glutathione Sepharose beads, and after washing protein—RNA complexes were eluted with glutathione and the selected RNA was reverse-transcribed and amplified by PCR. Sequencing of selected sequences was carried out after 7, 9, and 13 rounds of selection.
An oligonucleotide harbouring a 25-nucleoride (nt) random sequence surrounded by 2 primer binding sites with an estimated complexity of 1.2×10^12 (sampling complete sequence space for 20-nt sequences) was amplified by 10 rounds of PCR as previously described in Sakashita E., and Sakamoto H.1994 Nucleic Acids Res 22: 4082-4086, then purified by using a QIAquick gel extraction kit (e.g., QIAGEN) according to manufacturer's instructions. RNA was transcribed from 13 pmol of dsDNA template, then extracted with phenol/chloroform and ethanol-precipitated according to established methods in the art. The RNA pellet was resuspended in water […], and unincorporated nucleotides were removed by Sephadex G-25 Quick Spin columns (Roche). RNA was quantified by absorbance at 260 nm.
Binding reactions were carried out in SELEX buffer [10 mM Mops (pH 7.0), 50 mM KCl, 5 mM MgCl2, 5% glycerol, 1 mM DTT, 0.1% Triton, […], Complete protease inhibitor]. […]

[3] = tested on: 5′ splice site from exon 3 of the Tra2β minigene (CUCUGAAUCUAGGUAAGAAAG); experiment: Surface plasmon resonance competition binding; details: 750 nM F12, 1 molar equivalent competitor RNA; compared with exons 1 and 2
Description: Competition binding experiments were carried out by flowing a solution of F12 over a streptavidin chip coated with a biotinylated ssRNA oligonucleotide (containing the sequence AGGUAA) in the presence of an unlabeled competitor oligonucleotide.
Binding experiments were performed in triplicate at 25° C. on a BIACORE 3000 (Biacore). A 5′ biotin-labeled RNA oligonucleotide containing the 5′ splice site from exon 3 of the Tra2β minigene ([…]; SEQ ID NO: 29) was purified by size exclusion chromatography (Superdex 75), and unlabeled competitor oligonucleotides i.e., GCGAGCGGUACGUAGA from exon 1 (SEQ ID NO: 30), AGGAAUAAGUGAAGCUG from exon 2 (SEQ ID NO: 31), and […] from exon 3 (SEQ ID NO: 32) were used without further purification. Protein and RNA samples were dialysed into 10 mM sodium phosphate (pH 7.2), 50 mM NaCl, 1 mM DTT, and 0.005% NP20 and filtered. The biotinylated RNA was heated to 65° C. for 5 min, cooled on ice, and then immobilized onto a streptavidin-coated sensor chip to a total of approximately 160 relative units. Solutions of 750 nM F12 in the presence of 1 molar equivalent of each competitor RNA were injected in random order over the sensor chip (at a flow rate of 20 μL/min for 120 sec) and allowed to undergo a 120-sec dissociation time; a further 300-sec interval was allowed between injections. Data were analyzed by using BIA Evaluation software (Biacore). […]

[4] = tested on: 17-nt RNA oligonucleotide containing a single AGGUAA motif; experiment: Gel shift assay of F12 with 17-nt oligonucleotide; assay type: binding
Description: Gel Shift assays e.g., FIGS. 1B, 32A, were carried out using standard protocols. In brief, oligonucleotides were 5′ end-labelled with T4 polynucleotide kinase and annealed. Binding reactions were set up in a volume of 30 μL and contained a constant concentration of ^32P-labeled probe (0.1 pmol) and increasing concentrations of F12, in a buffer consisting of 10 mM Mops (pH 7.2), 50 mM KCl, 5 mM MgCl2, 1 mM DTT, 0.03 mg/mL heparin, and 5% glycerol. Binding reactions were set up on ice and incubated at 4° C. for 30 min, after which time 15 μL of each sample was loaded onto a prerun 8% native polyacrylamide gel made up in 0.5× Tris-borate buffer, and electrophoresed (250V, 1 h, 4° C.). The oligonucleotide sequence used for gel shift experiments was GCAACCAGGUAAAGUCU (SEQ ID NO: 28); the site was mutated by changing the central GGU to CUG.
To determine whether the AGGUAA motif was sufficient for binding, the binding of the double finger construct F12 to a 17-nt RNA oligonucleotide containing a single AGGUAA motif was tested as described in Section 1.4 above with dsDNA, ssDNA, and dsRNA also tested as controls.

effect on binding of scrambling both sites ([1]; FIG. 1E, lane 3): effectively eliminated binding
reduction in binding to the chip by competitor 5′ splice site oligonucleotide of exon 3 [3]: largest reduction in binding
B1: F12: F1 and F2 domains, residues 1-95 of human ZRANB2 (protein, UniProt O95218 1-95, looked up, fragment)
chain: MSTKNFRVSDGDWICPDKKCGNVNFARRTSCNRCGREKTTEAKMMKAGGTEIGKTLAEKSRGLFSANDWQCKTCSNVNWARRSECNMCNTPKYAK
modifications: F1-F2 zinc fingers GST fusion in some uses
notes: F1 and F2 domains, residues 1-95 of human ZRANB2
affinity (association constant) for AGGUAAAGGUAA ([1]; FIG. 1E, lane 6): 1.9e+07 M⁻¹
affinity for double site with cytosine-rich spacer versus penta-adenine spacer ([1]; FIG. 1E, lanes 10 and 8): same affinity
affinity versus spacing between AGGUAA motifs ([1]; double sites separated by −1 to 8 nt, adenines inserted): increased monotonically
effect on binding of randomizing one of the AGGUAA motifs ([1]; sequence AGAAUGAGGUAA, FIG. 1E, lane 4): reduced the binding by a small, but reproducible, amount
consensus ssRNA sequence recognized [2]: AGGUAA(N1-8)AGGUAA
effect of mutation of the central GGU to CUG [4]: abrogated the interaction
nucleic acid type selectivity of the interaction ([4]; dsDNA, ssDNA, dsRNA tested as controls): strongly selective for ssRNA
